Measured values published in patent US20090175866A1, “TREATMENT OF B-CELL MALIGNANCIES” (priority 2004, published 2009).

Legend:
KMS11 (FGFR3-Y373C) = assay: Viability of KMS11 myeloma cells; type: cell-based, human; details: cells grow independent of FGF
Protocol: (§1) Non-transformed rat chondrocyte cell line expressing PGFR3 in an inducible manner (RCJ-FGFR3) has been described previously (Rauchenberger R. et al. J. Biol. Chem. 2003; 278:38194-205). Cells were maintained in α-Minimum Essential Media supplemented with 15% fetal calf serum (FCS), 2 mM L-Glutamine, 100 U/ml penicillin, 100 μg/ml streptomycin, 600 μg/ml G418 (Gibco BRL, Ontario, Canada), 2 μg/ml Tetracyclin (Sigma, Ontario, Canada), and 50 μg/ml HygromycinB (Gibco BRL). FGFR3 expression was induced by removal of tetracyclin and serum starvation. […]
(§2) Cell viability was assessed by 3-(4,5-dimethylthiazol)-2,5-diphenyl tetrazolium (MTT) or (2,3-bis(2-methoxy-4-nitro-5-sulphophenyl)-5-[(phenylamino) carbonyl]-2H-tetrazolium hydroxide (XTT) dye absorbance where indicated. Cells were seeded in 96-well plates at a density of 20,000 (FDCP-1 cells), 5,000 (B9 cells) or 25,000 cells (MM cell lines) per well in culture medium. Cells were incubated in the absence or presence of one of the following cytokines: 10 ng/ml FGF9 and 5 μg/ml heparin, 1% murine IL-6, 50 ng/ml IGF-1 or 50 ng/ml human IL-6 where indicated and increasing concentrations of PRO-001, control antibody (purified human Fab) or 100 nM PD173074. […]

ERK1/2 phosphorylation = assay: FGF-induced ERK phosphorylation in primary myeloma cells (flow cytometry); type: cell-based, human; details: 5 μg/ml, 2 h pre-incubation
Protocol: FIGS. 6 A-B are flow cytometry charts of human primary myeloma cells treated with anti-FGFR antibody PRO-001. A: Freshly isolated BMSCs were stained with PRO-001 (black line) or control antibody (grey line) and then stained with PE-conjugated anti-human secondary antibody. B: Primary myeloma cells were incubated in the absence (filled) or presence of FGF (light line) or pre-incubated with 5 μg/ml PRO-001 (dark line) for 2 h and then stimulated with FGF. ERK1/2 phosphorylation was assessed by flow cytometry analysis.
Determination of ERK1/2 phosphorylation by flow cytometry has been described previously (Chow S, et al., Cytometry 2001; 46:72-78). Cells were serum-starved overnight and then stimulated with 30 ng/ml of aFGF and 10 μg/ml heparin for 10 minutes at 37° C. The cells were immediately fixed by adding 10% formaldehyde directly into the culture medium to obtain a final concentration of 2%. Cells were incubated in fixative for 10 min at 37° C. then on ice for an additional 2 minutes. The cells were permeabilized by adding ice-cold methanol (to a final concentration of 90%) while vortexing and incubated on ice for 30 minutes. […] Flow cytometry was performed on a FACSCaliber® flow cytometer (BD Biosciences, San Jose, Calif.) and analyzed using Cellquest® software (Becton Dickinson). […]

FGFR3-Y373C = biological target: T1, FGFR3-Y373C (Homo sapiens, UniProt P22607, Y373C); assay: FGF-stimulated growth of B9 cells expressing Y373C-FGFR3; type: cell-based
T1 construct: expressed in transfected cells; host or cells: B9 cells
Protocol: as §1, §2

T1 sequence (P22607 23-806 Y373C): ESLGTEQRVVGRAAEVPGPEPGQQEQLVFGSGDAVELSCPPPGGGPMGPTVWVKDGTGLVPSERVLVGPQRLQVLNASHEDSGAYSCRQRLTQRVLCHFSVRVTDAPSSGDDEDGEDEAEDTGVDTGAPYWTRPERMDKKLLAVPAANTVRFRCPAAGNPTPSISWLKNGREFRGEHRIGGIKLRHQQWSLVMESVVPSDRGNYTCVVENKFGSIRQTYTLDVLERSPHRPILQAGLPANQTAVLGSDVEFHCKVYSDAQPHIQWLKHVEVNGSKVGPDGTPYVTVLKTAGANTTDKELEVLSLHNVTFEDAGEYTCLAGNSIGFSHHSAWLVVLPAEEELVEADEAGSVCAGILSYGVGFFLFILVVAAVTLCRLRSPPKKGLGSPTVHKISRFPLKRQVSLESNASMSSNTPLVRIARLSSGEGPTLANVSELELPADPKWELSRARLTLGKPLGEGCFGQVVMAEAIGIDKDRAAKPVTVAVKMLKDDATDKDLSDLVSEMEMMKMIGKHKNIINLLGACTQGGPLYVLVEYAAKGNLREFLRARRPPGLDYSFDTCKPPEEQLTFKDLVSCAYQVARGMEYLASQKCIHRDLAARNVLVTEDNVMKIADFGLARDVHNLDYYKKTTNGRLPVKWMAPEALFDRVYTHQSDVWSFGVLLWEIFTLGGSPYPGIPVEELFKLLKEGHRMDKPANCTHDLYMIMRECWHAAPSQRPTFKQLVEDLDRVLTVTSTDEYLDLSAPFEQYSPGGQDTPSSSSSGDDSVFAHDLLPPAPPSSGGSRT

B1: PRO-001: human anti-FGFR3 Fab from HuCAL library; VH-CDR3 SEQ ID NO:1, VL-CDR3 SEQ ID NO:10; VH SEQ ID NO:19, VL SEQ ID NO:28 (antibody, V domains shown)
VH: QVQLQQSGPGLVKPSQTLSLTCAISGDSVSSNSAAWNWIRQSPGRGLEWLGRTYYRSKWYNDYAVSVKSRITINPDTSKNQFSLQLNSVTPEDTAVYYCARSYYPDFDYWGQGTLVTVSS
VL: DIELTQPPSVSVAPGQTARISCSGDALGDKYASWYQQKPGQAPVLVIYDDSDRPSGIPERFSGSNSGNTATLTISGTQAEDEADYYCQSYDGPDLWVFGGGTKLTVLGQ
Viability of KMS11 (FGFR3-Y373C) (KMS11 (FGFR3-Y373C)): failed to inhibit the viability
FGF-induced ERK phosphorylation in primary myeloma cells (ERK1/2 phosphorylation): blocked FGF-induced ERK phosphorylation
IC50, FGF-stimulated growth of cells expressing Y373C-FGFR3 (FGFR3-Y373C): approximately 3 μg/ml
